According to patent US20210000940A1:
Like-named read-outs stand apart in the source and are kept apart here.

How the values were obtained:
[1] = biological target: Andes virus glycoprotein Gc, wild type (Andes orthohantavirus CHI-7913) (UniProt Q9E006)
[2] = biological target: Andes virus glycoprotein Gc, wild type (Andes orthohantavirus CHI-7913) (UniProt Q9E006); remark: listed apart in the source

Andes virus glycoprotein Gn, wild type (from UniProt Q9E006 19-651)
melting temperature (Tm) of temperature-induced Gn/Gc dissociation [1]: 37.7 °C | melting temperature (Tm) of temperature-induced Gn/Gc dissociation [2]: 36.3 °C
